{"source": "patent US20140056926A1", "about": "(SNU R AND DB FOUNDATION, published 2014)", "binders": {"B1": {"name": "abciximab (ReoPro) (Fab, V domains shown)", "VH": "EVQLQQSGTVLARPGASVKMSCEASGYTFTNYWMHWVKQRPGQGLEWIGAIYPGNSDTSYIQKFKGKAKLTAVTSTTSVYMELSSLTNEDSAVYYCTLYDGYYVFAYWGQGTLVTVSA", "VL": "EIVLTQSPVTLSVTPGDSVSLSCRASRDISNNLHWFQQTSHESPRLLIKYASQSMSGIPSRFSGSGSGTDFTLSINSVETEDFGMYFCQQTNSWPYTFGGGTKLEIK"}}, "biological_target": "T1, integrin alpha2b beta3 (UniProt P08514 32-993; P05106 27-718)", "T1 construct": "also called integrin α2b β3; integrin alpha2 beta3", "experiment": "ELISA on coated integrin alpha2b beta3 (100 ng per well), anti-human Fab-HRP, absorbance 405 nm", "data": [{"binder": "B1", "values": [{"measurement": "EC50 (read off the curve)", "result": "~0.8", "unit": "nM"}]}]}
